The values that follow come from US20240270804.

The data set addresses T1, myc- and green-fluorescent protein (GFP) tagged mAKAP 1694-1833 (UniProt Q9WVC7).
T1 sequence: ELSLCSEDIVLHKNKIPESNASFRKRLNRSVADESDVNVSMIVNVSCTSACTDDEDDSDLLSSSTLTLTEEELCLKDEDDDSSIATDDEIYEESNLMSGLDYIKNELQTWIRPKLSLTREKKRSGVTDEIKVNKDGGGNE

As for “endogenous CaMKII (Ca2+/calmodulin-dependent protein kinase II) of neonatal rat ventricular myocytes”, the “HDAC4 phosphorylation (basal and Angiotensin II-induced) in neonatal myocytes” value is “both basal and Angiotensin II-induced HDAC4 phosphorylation in neonatal myocytes is inhibited by mAKAP 1694-1833 expression”.
